Source: patent publication US20230151069A1, “Cyclic Peptides” (LIFEARC, priority 2020, published 2023)

Tests used:
5XFAD mice [1] = test: Active immunisation, plaque load by immunohistochemistry in 5XFAD brain sections; format: in vivo; conditions: 5XFAD mouse cortex, FIG. 29
Method: 5XFAD mice were immunized with antigen [Thioacetal bridged amyloid-beta peptide 1-14—KLH conjugate; DAC*[…]*HH[Cys]-amide (*S—CH—S bridged, cyclised via positions 3 and 12)] as described previously.
Mice were sacrificed via CO2 anesthetization followed by cervical dislocation. Brain samples were carefully dissected and post-fixed in 4% phosphate-buffered formalin at 4° C. Human and mouse tissue samples were processed as previously described 4. In brief, 4 μm paraffin sections were deparaffinized in xylene, followed by rehydration in a series of ethanol. […] Non-specific binding sites were blocked by treatment with skim milk and fetal calf serum in PBS, prior to the addition of the primary antibodies. The following antibodies were used: polyclonal antibody 24311 against […], monoclonal antibody 1-57 against pyroglumatate Aβ3-X, (Synaptic Sytems, GOttingen, Germany; 1 mg/ml; 1:500), and TAP01_4 (1:200; 2 mg/ml). Corresponding biotinylated secondary anti-human and anti-mouse antibodies (1:200) were purchased from DAKO (Glostrup, Denmark). Staining was visualized using the ABC method, with a Vectastain kit (Vector Laboratories, Burlingame, USA) and diaminobenzidine (DAB) as chromogen. Counterstaining was carried out with hematoxylin.
Plaque load was quantified as previously described (G. Antonios et al., Alzheimer therapy with an antibody against N-terminal Abeta 4-X and pyroglutamate Abeta 3-X. Scientific reports 5, 17338 (2015)). 5-6 paraffin embedded sections, which were at least 80 μm afar from each other, were stained simultaneously with DAB as chromogen. For Thioflavin S fluorescent staining tissue sections were deparaffinized and rehydrated, washed twice in deionized water and then treated with 1% (w/v) ThioflavinS in aqueous solution and counterstained in a 1% (w/v) aqueous solution of 4′6-diamidin-2-phenylindol. The relative Aβ load was evaluated using an Olympus BX-51 microscope equipped with an Olympus DP-50 camera and the ImageJ software (NIH, USA). Representative pictures of 100× magnification were systematically captured. […]

5XFAD mice [2] = test: Active immunisation, in vivo glucose metabolism by 18F-FDG-PET/MRI in 5XFAD mice; design: species or system mouse; conditions: immunized 5XFAD mice, FIG. 30
Method: 18F-FDG-PET/MRI was performed on 5xFAD mice as well as age matched C57Bl/6J wild type mice. Mice were fasted overnight and blood glucose levels were measured before tracer injection. 11.46 to 20.53 MBq (mean 16.81 MBq) 18F-FDG was injected intravenously into a tail vein with a maximum volume of 200 μl followed by an uptake period of 45 minutes. Mice were awake during the uptake process. PET scans were performed for 20 minutes using a small animal 1 Tesla nanoScan PET/MRI (Mediso, Hungary). Mice were anesthetized with isoflurane supplemented with oxygen during the scans and kept on a heated bed (37° C.). Respiratory rate was measured throughout the imaging process. […]
All images were analyzed using PMOD v3.9 (PMOD Technologies, Switzerland) as described before (Bouter et al). […] PET VOI statistics (kBq/cc) were generated for all brain areas and standardized uptake values (SUVs) were calculated [SUV=tissue activity concentration average (kBq/cc)×body weight (g)/injected dose (kBq)] for semi-quantitative analysis. SUVs of 18F-FDG-PET scans were corrected for measured blood glucose levels [SUVGIc=SUV x blood glucose level (mg/dl)]. […]
In vivo glucose metabolism on Alzheimer mice (5XFAD) as well as age matched C57Bl/6J wild type mice was analysed by 18F-FDG-PET/MRI imaging as described above.

Tg4-42 mice = test: Quantification of CA1 neuron numbers by unbiased stereology in Tg4-42 mice; format: in vivo, mouse; conditions: aged Tg4-42 mice
Method: Tg4-42 mice were immunized at 6 weeks of age for 12 weeks with antigen [Thioacetal bridged Abeta peptide 1-14—KLH conjugate; DAC*[…]*HH[Cys]-amide (*S—CH—S bridged)] emulsified in complete Freund's adjuvant (CFA), followed by booster doses of protein emulsified in incomplete Freund's adjuvant (IFA). Booster injections of antigen emulsified in IFA was administered at day 14, day 28, day 42, thereafter monthly (3 times after month 4, 5 and 6), after immunization with antigen/CFA emulsion. Mice were acclimated at our facility for at least 7 days before immunization. […]
Stereological analysis was performed as previously described (G. Antonios et al., Alzheimer therapy with an antibody against N-terminal Abeta 4-X and pyroglutamate Abeta 3-X. Scientific reports 5, 17338 (2015)). The hippocampal cell layer CA1 (Bregma −1.22 to −3.52 mm) was delineated on cresyl violet-stained sections and analysed with a stereology workstation (Olympus BX51 with a motorized specimen stage for automatic sampling), StereoInvestigator 7 (MicroBrightField, Williston, USA) and a 100x oil lens (NA=1.35).
The treatment effect of active immunization was assessed in 6.5 month old Tg4-42 mice on hippocampus-dependent learning and memory by the Morris water maze test (FIG. 31A) and by counting the total number of CA1 neurons in the hippocampus (FIG. 31B). […]

Substance: DAC*FRHDSGYEC*HH[Cys]-amide (*S—CH—S bridged, cyclised via positions 3 and 12)
- amyloid-plaque load in brain tissue (pan-Abeta, pyroglutamate Aβ3-X, Thioflavin S, N-truncated Aβ stainings) (5XFAD mice [1]; listed as 3-12 linked Aβ1-14 cyclic peptide): reduction in amyloid-plaque load
- amyloid-plaque load in brain tissue (pan-Abeta, pyroglutamate Aβ3-X, Thioflavin S, N-truncated Aβ stainings) (5XFAD mice [1]; listed as cyclised Aβ peptides): strong reduction of plaques
- amyloid-plaque load in brain tissue (pan-Abeta, pyroglutamate Aβ3-X, Thioflavin S, N-truncated Aβ stainings) (5XFAD mice [1]; listed as cyclized Aβ peptide): significant reduction in plaque load
- brain glucose metabolism (18F-FDG uptake) (5XFAD mice [2]): significant rescue
- loss / number of CA1 neurons (in words) (Tg4-42 mice; FIG. 31B): significantly reduced loss of neurons
- mean number (+SEM) of neurons in CA1 layer of hippocampus (Tg4-42 mice; IgG1 treated control 128687+13035): 185858+39180
